Protein stability index data for 94 variants are collected here from the supplement of paper PMC10567573.

The chains are these.
B1: HNF4A (parent)
chain: RFSRQCVVDKDKRNQCRYCRLKKC
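Also: lentivirally expressed fusions sorted by FACS into six bins by GFP to DsRed ratio, PSI derived from sequencing read proportions per bin multiplied by bin number.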

Variants of B1 are the subject of the data set. In words: protein stability index of a GFP-peptide fusion (GPS, HEK-293T) (PSI 1-6); higher = more stable. The settings on record: c terminus: a fixed tail appended.
RFNRQCVVDKDKRNQCRYCRLKKC [S3N]: the protein stability index came out at 2.76.
Then RFTRQCVVDKDKRNQCRYCRLKKC [S3T], with 2.67; and RFVRQCVVDKDKRNQCRYCRLKKC [S3V], with 2.17; and RFRRQCVVDKDKRNQCRYCRLKKC [S3R], with 3.1.
Then RFFRQCVVDKDKRNQCRYCRLKKC [S3F], with 1.91; and RFDRQCVVDKDKRNQCRYCRLKKC [S3D], with 2.58.
Then RFGRQCVVDKDKRNQCRYCRLKKC [S3G], with 2.34; and RFLRQCVVDKDKRNQCRYCRLKKC [S3L], with 2.08; and RFQRQCVVDKDKRNQCRYCRLKKC [S3Q], with 2.5.
For the variant RFERQCVVDKDKRNQCRYCRLKKC [S3E], the protein stability index was found to be 3.07.
Then RFYRQCVVDKDKRNQCRYCRLKKC [S3Y], with 2.95; and RFPRQCVVDKDKRNQCRYCRLKKC [S3P], with 3.26; and RFIRQCVVDKDKRNQCRYCRLKKC [S3I], with 2.77.
With RFHRQCVVDKDKRNQCRYCRLKKC [S3H], the protein stability index turned out to be 2.7.
Then RFWRQCVVDKDKRNQCRYCRLKKC [S3W], with 1.52; and RFCRQCVVDKDKRNQCRYCRLKKC [S3C], with 3.62.
On to RFARQCVVDKDKRNQCRYCRLKKC [S3A], for which the protein stability index is 2.59.
On to RFKRQCVVDKDKRNQCRYCRLKKC [S3K], for which the protein stability index worked out at 3.33.
Then RFMRQCVVDKDKRNQCRYCRLKKC [S3M], with 2.33.
Then LFSRQCVVDKDKRNQCRYCRLKKC [R1L], with 2.31.
Then QFSRQCVVDKDKRNQCRYCRLKKC [R1Q], with 2.66.
In the case of EFSRQCVVDKDKRNQCRYCRLKKC [R1E], the protein stability index came out at 3.43.
Then DFSRQCVVDKDKRNQCRYCRLKKC [R1D], with 2.59.
As for TFSRQCVVDKDKRNQCRYCRLKKC [R1T], the protein stability index was determined as 2.24.
Then WFSRQCVVDKDKRNQCRYCRLKKC [R1W], with 2.21.
Then HFSRQCVVDKDKRNQCRYCRLKKC [R1H], with 3.54; and CFSRQCVVDKDKRNQCRYCRLKKC [R1C], with 2.95.
Consider KFSRQCVVDKDKRNQCRYCRLKKC [R1K], for which the protein stability index was found to be 2.4.
Then FFSRQCVVDKDKRNQCRYCRLKKC [R1F], with 1.94; and GFSRQCVVDKDKRNQCRYCRLKKC [R1G], with 2.64; and PFSRQCVVDKDKRNQCRYCRLKKC [R1P], with 2.5.
As to IFSRQCVVDKDKRNQCRYCRLKKC [R1I], the protein stability index amounted to 2.65.
Then NFSRQCVVDKDKRNQCRYCRLKKC [R1N], with 2.44; and YFSRQCVVDKDKRNQCRYCRLKKC [R1Y], with 2.19; and AFSRQCVVDKDKRNQCRYCRLKKC [R1A], with 2.4.
Then MFSRQCVVDKDKRNQCRYCRLKKC [R1M], with 1.54; and SFSRQCVVDKDKRNQCRYCRLKKC [R1S], with 2.18.
Then VFSRQCVVDKDKRNQCRYCRLKKC [R1V], with 1.53; and RFSRQAVVDKDKRNQCRYCRLKKC [C6A], with 3.24.
As for RFSRQDVVDKDKRNQCRYCRLKKC [C6D], the protein stability index was 2.47.
On to RDSRQCVVDKDKRNQCRYCRLKKC [F2D], for which the protein stability index came to 3.45.
Then RQSRQCVVDKDKRNQCRYCRLKKC [F2Q], with 3.63.
Then RNSRQCVVDKDKRNQCRYCRLKKC [F2N], with 3.39; and RHSRQCVVDKDKRNQCRYCRLKKC [F2H], with 3.34; and RKSRQCVVDKDKRNQCRYCRLKKC [F2K], with 3.31.
Then RESRQCVVDKDKRNQCRYCRLKKC [F2E], with 3.6; and RLSRQCVVDKDKRNQCRYCRLKKC [F2L], with 3.06; and RISRQCVVDKDKRNQCRYCRLKKC [F2I], with 2.39.
For RVSRQCVVDKDKRNQCRYCRLKKC [F2V], the protein stability index amounted to 2.37.
Then RYSRQCVVDKDKRNQCRYCRLKKC [F2Y], with 3.32; and RMSRQCVVDKDKRNQCRYCRLKKC [F2M], with 2.89; and RPSRQCVVDKDKRNQCRYCRLKKC [F2P], with 3.45.
Regarding RTSRQCVVDKDKRNQCRYCRLKKC [F2T], the protein stability index amounted to 3.08.
For the variant RWSRQCVVDKDKRNQCRYCRLKKC [F2W], the protein stability index was determined as 2.37.
Then RASRQCVVDKDKRNQCRYCRLKKC [F2A], with 3.77; and RGSRQCVVDKDKRNQCRYCRLKKC [F2G], with 2.96; and RRSRQCVVDKDKRNQCRYCRLKKC [F2R], with 3.37.
Then RSSRQCVVDKDKRNQCRYCRLKKC [F2S], with 4.23; and RFSRCCVVDKDKRNQCRYCRLKKC [Q5C], with 2.04; and RFSRECVVDKDKRNQCRYCRLKKC [Q5E], with 3.29.
Then RFSRWCVVDKDKRNQCRYCRLKKC [Q5W], with 2.4.
As to RFSRDCVVDKDKRNQCRYCRLKKC [Q5D], the protein stability index was determined as 2.3.
Then RFSRKCVVDKDKRNQCRYCRLKKC [Q5K], with 2.43; and RFSRGCVVDKDKRNQCRYCRLKKC [Q5G], with 2.38; and RFSRRCVVDKDKRNQCRYCRLKKC [Q5R], with 2.83.
As to RFSRLCVVDKDKRNQCRYCRLKKC [Q5L], the protein stability index turned out to be 2.56.
Then RFSRNCVVDKDKRNQCRYCRLKKC [Q5N], with 2.6.
Then RFSRACVVDKDKRNQCRYCRLKKC [Q5A], with 2.24; and RFSRTCVVDKDKRNQCRYCRLKKC [Q5T], with 2.16.
For RFSRYCVVDKDKRNQCRYCRLKKC [Q5Y], the protein stability index turned out to be 2.22.
Then RFSRMCVVDKDKRNQCRYCRLKKC [Q5M], with 3.11; and RFSRSCVVDKDKRNQCRYCRLKKC [Q5S], with 2.96.
Then RFSRVCVVDKDKRNQCRYCRLKKC [Q5V], with 2.26.
Then RFSRHCVVDKDKRNQCRYCRLKKC [Q5H], with 2.5.
Take RFSRPCVVDKDKRNQCRYCRLKKC [Q5P]: the protein stability index came to 2.39.
Then RFSRICVVDKDKRNQCRYCRLKKC [Q5I], with 2.16; and RFSRFCVVDKDKRNQCRYCRLKKC [Q5F], with 2.18.
RFSQQCVVDKDKRNQCRYCRLKKC [R4Q]: the protein stability index came to 2.8.
In the case of RFSNQCVVDKDKRNQCRYCRLKKC [R4N], the protein stability index came out at 2.53.
With RFSLQCVVDKDKRNQCRYCRLKKC [R4L], the protein stability index came to 1.79.
Then RFSEQCVVDKDKRNQCRYCRLKKC [R4E], with 2.6.
As to RFSTQCVVDKDKRNQCRYCRLKKC [R4T], the protein stability index is 1.62.
Then RFSPQCVVDKDKRNQCRYCRLKKC [R4P], with 1.54; and RFSWQCVVDKDKRNQCRYCRLKKC [R4W], with 2.4.
Then RFSIQCVVDKDKRNQCRYCRLKKC [R4I], with 1.85; and RFSDQCVVDKDKRNQCRYCRLKKC [R4D], with 2.27.
Take RFSHQCVVDKDKRNQCRYCRLKKC [R4H]: the protein stability index is 3.57.
Turning to RFSVQCVVDKDKRNQCRYCRLKKC [R4V], the protein stability index worked out at 2.59.
Take RFSGQCVVDKDKRNQCRYCRLKKC [R4G]: the protein stability index came to 2.6.
Then RFSCQCVVDKDKRNQCRYCRLKKC [R4C], with 3.38; and RFSSQCVVDKDKRNQCRYCRLKKC [R4S], with 2.44; and RFSFQCVVDKDKRNQCRYCRLKKC [R4F], with 1.9.
Then RFSKQCVVDKDKRNQCRYCRLKKC [R4K], with 2.58.
Then RFSMQCVVDKDKRNQCRYCRLKKC [R4M], with 2.91.
